T1: PUF4 RNA-binding domain (Saccharomyces cerevisiae, UniProt P25339 537-888)
T1 sequence: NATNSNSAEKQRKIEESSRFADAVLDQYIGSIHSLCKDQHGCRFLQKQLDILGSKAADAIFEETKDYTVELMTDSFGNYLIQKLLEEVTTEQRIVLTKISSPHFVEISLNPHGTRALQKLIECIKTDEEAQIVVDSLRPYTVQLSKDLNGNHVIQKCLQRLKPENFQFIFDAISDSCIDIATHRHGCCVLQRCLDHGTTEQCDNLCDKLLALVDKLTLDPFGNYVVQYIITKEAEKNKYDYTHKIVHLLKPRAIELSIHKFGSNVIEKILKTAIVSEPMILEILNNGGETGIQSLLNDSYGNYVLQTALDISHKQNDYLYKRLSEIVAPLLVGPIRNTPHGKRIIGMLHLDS


Target: T1, PUF4 RNA-binding domain
Assay: Mg; RNA-MaP; 20 mM Na-HEPES pH 7.4, 30 mM KOAc, 0.75 mM MgCl2, 0.1% Tween-20, 5% glycerol, 0.1 mg/mL BSA, 2 mM DTT; 25 C; 0.0125-409.6 nM protein
Conditions: tags: N-His6-TEV cleaved; C-SNAP kept, Cy3B-labelled; label: tethered on chip by stalled RNA polymerase

Binder | Kd
ACAAACCAACACUAUUACUACAAAC (ssRNA) [Id_ii_S3_P4E.4_K4.3_C4.2_[T-1A]_H4.3_A4.1_F4.1_T4.2_[G10C]] | > 2300 nM
ACAAACCAACACUAUUAGCACAAAC (ssRNA) [Id_ii_S3_P4E.4_K4.3_C4.2_[T-1A]_H4.3_A4.1_F4.1_T4.2_[T11C]] | > 2300 nM
ACAAACGAUAUAUUAUUAGCACAAAC (ssRNA) [Id_ii_S3_P5E.3_K5.2_C5.2_[C-2G]_[T-1A]_H5.2_A5.1_F5.1_T5.2_[T11G]_[A12C]] | 164 nM
ACAAACGAUAUAUUAUUAAAACAAAC (ssRNA) [Id_ii_S3_P5E.3_K5.2_C5.2_[C-2G]_[T-1A]_H5.2_A5.1_F5.1_T5.2_[T11A]] | 704 nM
ACAAACGAUAUAUUAUUAACACAAAC (ssRNA) [Id_ii_S3_P5E.3_K5.2_C5.2_[C-2G]_[T-1A]_H5.2_A5.1_F5.1_T5.2_[T11A]_[A12C]] | 313 nM
UCUCUUGUUAUUAUUAUCUCUU (ssRNA) [Ib_S1_P5E.1_K5.1_C5.1_H5.1_[T1G]_[G2T]_A5.1_F5.1_T5.1] | 56.7 nM
ACAAACGCUAUAUUAUUAAUACAAAC (ssRNA) [Id_ii_S3_P5E.3_K5.2_C5.2_[C-2G]_[T-1C]_H5.2_A5.1_F5.1_T5.2_[T11A]_[A12T]] | 480 nM
UCUCUUCAUAUUAUUAUCUCUU (ssRNA) [Ib_S1_P5E.1_K5.1_C5.1_H5.1_[T1C]_[G2A]_A5.1_F5.1_T5.1] | > 2300 nM
ACAAACACUAUAUUAUUAAGACAAAC (ssRNA) [Id_ii_S3_P5E.3_K5.2_C5.2_[C-2A]_[T-1C]_H5.2_A5.1_F5.1_T5.2_[T11A]_[A12G]] | 626 nM
ACAAACGAUAUAUUAUUACCACAAAC (ssRNA) [Id_ii_S3_P5E.3_K5.2_C5.2_[C-2G]_[T-1A]_H5.2_A5.1_F5.1_T5.2_[T11C]_[A12C]] | 519 nM
ACAAACUUUAUAUUAUUACGACAAAC (ssRNA) [Id_ii_S3_P5E.3_K5.2_C5.2_[C-2T]_H5.2_A5.1_F5.1_T5.2_[T11C]_[A12G]] | 381 nM
ACAAACAAUAUAUUAUUAAAACAAAC (ssRNA) [Id_ii_S3_P5E.3_K5.2_C5.2_[C-2A]_[T-1A]_H5.2_A5.1_F5.1_T5.2_[T11A]] | 550 nM
ACAAACUCUAUAUUAUUAAGACAAAC (ssRNA) [Id_ii_S3_P5E.3_K5.2_C5.2_[C-2T]_[T-1C]_H5.2_A5.1_F5.1_T5.2_[T11A]_[A12G]] | 684 nM
ACAAACCAACACUAUUAAGACAAAC (ssRNA) [Id_ii_S3_P4E.4_K4.3_C4.2_[T-1A]_H4.3_A4.1_F4.1_T4.2_[G10A]_[T11G]] | > 2300 nM
ACAAACACUAUAUUAUUACAACAAAC (ssRNA) [Id_ii_S3_P5E.3_K5.2_C5.2_[C-2A]_[T-1C]_H5.2_A5.1_F5.1_T5.2_[T11C]] | 459 nM
ACAAACCCUAUAUUAUUACCACAAAC (ssRNA) [Id_ii_S3_P5E.3_K5.2_C5.2_[T-1C]_H5.2_A5.1_F5.1_T5.2_[T11C]_[A12C]] | 448 nM
ACAAACCAACACUAUUAUCACAAAC (ssRNA) [Id_ii_S3_P4E.4_K4.3_C4.2_[T-1A]_H4.3_A4.1_F4.1_T4.2_[G10T]_[T11C]] | > 2300 nM
ACAAACAAUAUAUUAUUAGUACAAAC (ssRNA) [Id_ii_S3_P5E.3_K5.2_C5.2_[C-2A]_[T-1A]_H5.2_A5.1_F5.1_T5.2_[T11G]_[A12T]] | 118 nM
ACAAACUAUAUAUUAUUAAUACAAAC (ssRNA) [Id_ii_S3_P5E.3_K5.2_C5.2_[C-2T]_[T-1A]_H5.2_A5.1_F5.1_T5.2_[T11A]_[A12T]] | 18.3 nM

Binder | Kd
ACAAACUAUAUAUUAUUAUUACAAAC (ssRNA) [Id_ii_S3_P5E.3_K5.2_C5.2_[C-2T]_[T-1A]_H5.2_A5.1_F5.1_T5.2_[A12T]] | 19.2 nM
ACAAACCAACACUAUUACGACAAAC (ssRNA) [Id_ii_S3_P4E.4_K4.3_C4.2_[T-1A]_H4.3_A4.1_F4.1_T4.2_[G10C]_[T11G]] | > 2300 nM
ACAAACCAACACUAUUAAUACAAAC (ssRNA) [Id_ii_S3_P4E.4_K4.3_C4.2_[T-1A]_H4.3_A4.1_F4.1_T4.2_[G10A]] | > 2300 nM
ACAAACCCACACUAUUAAAACAAAC (ssRNA) [Id_ii_S3_P4E.4_K4.3_C4.2_[T-1C]_H4.3_A4.1_F4.1_T4.2_[G10A]_[T11A]] | > 2300 nM
ACAAACGAUAUAUUAUUAAUACAAAC (ssRNA) [Id_ii_S3_P5E.3_K5.2_C5.2_[C-2G]_[T-1A]_H5.2_A5.1_F5.1_T5.2_[T11A]_[A12T]] | 285 nM
ACAAACAAUAUAUUAUUAACACAAAC (ssRNA) [Id_ii_S3_P5E.3_K5.2_C5.2_[C-2A]_[T-1A]_H5.2_A5.1_F5.1_T5.2_[T11A]_[A12C]] | 535 nM
ACAAACAUUAUAUUAUUAGAACAAAC (ssRNA) [Id_ii_S3_P5E.3_K5.2_C5.2_[C-2A]_H5.2_A5.1_F5.1_T5.2_[T11G]] | 144 nM
ACAAACCCACACUAUUAAUACAAAC (ssRNA) [Id_ii_S3_P4E.4_K4.3_C4.2_[T-1C]_H4.3_A4.1_F4.1_T4.2_[G10A]] | > 2300 nM
ACAAACAGUAUAUUAUUAAGACAAAC (ssRNA) [Id_ii_S3_P5E.3_K5.2_C5.2_[C-2A]_[T-1G]_H5.2_A5.1_F5.1_T5.2_[T11A]_[A12G]] | 36.4 nM
ACAAACGCUAUAUUAUUAACACAAAC (ssRNA) [Id_ii_S3_P5E.3_K5.2_C5.2_[C-2G]_[T-1C]_H5.2_A5.1_F5.1_T5.2_[T11A]_[A12C]] | 812 nM
UCUCUUCGAAUUAUUAUCUCUU (ssRNA) [Ib_S1_P5E.1_K5.1_C5.1_H5.1_[T1C]_[T3A]_A5.1_F5.1_T5.1] | > 2300 nM
ACAAACGAUAUAUUAUUACAACAAAC (ssRNA) [Id_ii_S3_P5E.3_K5.2_C5.2_[C-2G]_[T-1A]_H5.2_A5.1_F5.1_T5.2_[T11C]] | 173 nM
ACAAACCAACACUAUUAACACAAAC (ssRNA) [Id_ii_S3_P4E.4_K4.3_C4.2_[T-1A]_H4.3_A4.1_F4.1_T4.2_[G10A]_[T11C]] | > 2300 nM
ACAAACCCUAUAUUAUUAAAACAAAC (ssRNA) [Id_ii_S3_P5E.3_K5.2_C5.2_[T-1C]_H5.2_A5.1_F5.1_T5.2_[T11A]] | 673 nM
ACAAACUCUAUAUUAUUACGACAAAC (ssRNA) [Id_ii_S3_P5E.3_K5.2_C5.2_[C-2T]_[T-1C]_H5.2_A5.1_F5.1_T5.2_[T11C]_[A12G]] | 230 nM
UCUCUUUGUAAUAUUAUCUCUU (ssRNA) [Ia_S1_P5E.1_K5.1_C5.1_H5.1_A5.1_[T5A]_F5.1_T5.1] | 6.33 nM
ACAAACCGUAUAUUAUUAGAACAAAC (ssRNA) [Id_ii_S3_P5E.3_K5.2_C5.2_[T-1G]_H5.2_A5.1_F5.1_T5.2_[T11G]] | 15.8 nM
ACAAACGAUAUAUUAUUAGGACAAAC (ssRNA) [Id_ii_S3_P5E.3_K5.2_C5.2_[C-2G]_[T-1A]_H5.2_A5.1_F5.1_T5.2_[T11G]_[A12G]] | 164 nM
ACAAACAGUAUAUUAUUAGAACAAAC (ssRNA) [Id_ii_S3_P5E.3_K5.2_C5.2_[C-2A]_[T-1G]_H5.2_A5.1_F5.1_T5.2_[T11G]] | 35.5 nM

Binder | Kd
ACAAACCAACACUAUUAGUACAAAC (ssRNA) [Id_ii_S3_P4E.4_K4.3_C4.2_[T-1A]_H4.3_A4.1_F4.1_T4.2] | > 2300 nM
UCUCUUUGUAUUCUUUUCUCUU (ssRNA) [Ic_S1_P5E.1_K5.1_C5.1_H5.1_A5.1_[A7C]_F5.1_[A10T]_T5.1] | 28.6 nM
ACAAACUUUAUAUUAUUAGCACAAAC (ssRNA) [Id_ii_S3_P5E.3_K5.2_C5.2_[C-2T]_H5.2_A5.1_F5.1_T5.2_[T11G]_[A12C]] | 82.9 nM
ACAAACCCUAUAUUAUUACUACAAAC (ssRNA) [Id_ii_S3_P5E.3_K5.2_C5.2_[T-1C]_H5.2_A5.1_F5.1_T5.2_[T11C]_[A12T]] | 400 nM
ACAAACAUUAUAUUAUUACAACAAAC (ssRNA) [Id_ii_S3_P5E.3_K5.2_C5.2_[C-2A]_H5.2_A5.1_F5.1_T5.2_[T11C]] | 464 nM
ACAAACACUAUAUUAUUAAAACAAAC (ssRNA) [Id_ii_S3_P5E.3_K5.2_C5.2_[C-2A]_[T-1C]_H5.2_A5.1_F5.1_T5.2_[T11A]] | 485 nM
ACAAACAUUAUAUUAUUAGGACAAAC (ssRNA) [Id_ii_S3_P5E.3_K5.2_C5.2_[C-2A]_H5.2_A5.1_F5.1_T5.2_[T11G]_[A12G]] | 94.3 nM
ACAAACCCUAUAUUAUUAACACAAAC (ssRNA) [Id_ii_S3_P5E.3_K5.2_C5.2_[T-1C]_H5.2_A5.1_F5.1_T5.2_[T11A]_[A12C]] | 452 nM
ACAAACCUACACUAUUAACACAAAC (ssRNA) [Id_ii_S3_P4E.4_K4.3_C4.2_H4.3_A4.1_F4.1_T4.2_[G10A]_[T11C]] | > 2300 nM
ACAAACGUUAUAUUAUUACUACAAAC (ssRNA) [Id_ii_S3_P5E.3_K5.2_C5.2_[C-2G]_H5.2_A5.1_F5.1_T5.2_[T11C]_[A12T]] | 580 nM
ACAAACGGUAUAUUAUUAGGACAAAC (ssRNA) [Id_ii_S3_P5E.3_K5.2_C5.2_[C-2G]_[T-1G]_H5.2_A5.1_F5.1_T5.2_[T11G]_[A12G]] | 28.9 nM
ACAAACACUAUAUUAUUACGACAAAC (ssRNA) [Id_ii_S3_P5E.3_K5.2_C5.2_[C-2A]_[T-1C]_H5.2_A5.1_F5.1_T5.2_[T11C]_[A12G]] | 493 nM
ACAAACCCUAUAUUAUUAAUACAAAC (ssRNA) [Id_ii_S3_P5E.3_K5.2_C5.2_[T-1C]_H5.2_A5.1_F5.1_T5.2_[T11A]_[A12T]] | 464 nM
ACAAACAAUAUAUUAUUAAUACAAAC (ssRNA) [Id_ii_S3_P5E.3_K5.2_C5.2_[C-2A]_[T-1A]_H5.2_A5.1_F5.1_T5.2_[T11A]_[A12T]] | 614 nM
ACAAACUAUAUAUUAUUACAACAAAC (ssRNA) [Id_ii_S3_P5E.3_K5.2_C5.2_[C-2T]_[T-1A]_H5.2_A5.1_F5.1_T5.2_[T11C]] | 13.5 nM
UCUCUUGGCAUUAUUAUCUCUU (ssRNA) [Ib_S1_P5E.1_K5.1_C5.1_H5.1_[T1G]_[T3C]_A5.1_F5.1_T5.1] | 1040 nM
ACAAACUUUAUAUUAUUACCACAAAC (ssRNA) [Id_ii_S3_P5E.3_K5.2_C5.2_[C-2T]_H5.2_A5.1_F5.1_T5.2_[T11C]_[A12C]] | 268 nM
ACAAACACUAUAUUAUUAUCACAAAC (ssRNA) [Id_ii_S3_P5E.3_K5.2_C5.2_[C-2A]_[T-1C]_H5.2_A5.1_F5.1_T5.2_[A12C]] | 370 nM
ACAAACAAUAUAUUAUUAUCACAAAC (ssRNA) [Id_ii_S3_P5E.3_K5.2_C5.2_[C-2A]_[T-1A]_H5.2_A5.1_F5.1_T5.2_[A12C]] | 576 nM
